Assay results published in the supplement of paper PMC7125110.
± gives the standard error. For part of these data: Variants at the floor of the assay were thinned out.

B1: glmS ribozyme (parent)
chain: AUAAAAGCGCCAGAACUACAGAAAUGUAGUUGACGAGGAGGAGGUUUAUCGAAUUUUCGGCGGAUGCCUCCAAA

Tests used:
Conditions in all cases: with glucosamine-6-phosphate
glucosamine-6-phosphate [1] = variants of: B1; assay: self-cleavage kobs at 40 uM GlcN6P; higher = faster cleavage; RNA array
Procedure, shortened: (§1)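 In situ transcription by E. coli RNA polymerase produced barcoded ribozyme variants on sequenced MiSeq chips, and a hybridised Cy3 probe tracked them at 37 °C. Glucosamine-6-phosphate was flowed in at 40 μM to 10 mM in HEPES/KCl/Mg(OAc)2 buffer. kcat and KM were taken from weighted Michaelis–Menten fits of kobs values from exponential decay fits.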

glucosamine-6-phosphate [2] = variants of: B1; assay: self-cleavage kobs at 640 uM GlcN6P; higher = faster cleavage; RNA array
Procedure, shortened: as §1

glucosamine-6-phosphate [3] = variants of: B1; assay: self-cleavage kobs at 10000 uM GlcN6P; higher = faster cleavage; RNA array
Procedure, shortened: as §1

glucosamine-6-phosphate [4] = variants of: B1; assay: kcat; higher = faster cleavage; RNA array
Procedure, shortened: as §1

glucosamine-6-phosphate [5] = variants of: B1; assay: KM; higher = weaker cofactor use; RNA array
Procedure, shortened: as §1

glucosamine-6-phosphate [6] = variants of: B1; assay: self-cleavage kobs at 160 uM GlcN6P; higher = faster cleavage; RNA array
Procedure, shortened: as §1

glucosamine-6-phosphate [7] = variants of: B1; assay: self-cleavage kobs at 2500 uM GlcN6P; higher = faster cleavage; RNA array
Procedure, shortened: as §1

Variant	self-cleavage kobs at 40 uM GlcN6P (glucosamine-6-phosphate [1]) [s⁻¹]	self-cleavage kobs at 640 uM GlcN6P (glucosamine-6-phosphate [2]) [s⁻¹]	self-cleavage kobs at 10000 uM GlcN6P (glucosamine-6-phosphate [3]) [s⁻¹]	kcat (glucosamine-6-phosphate [4]) [s⁻¹]	KM (glucosamine-6-phosphate [5]) [µM]	self-cleavage kobs at 160 uM GlcN6P (glucosamine-6-phosphate [6]) [s⁻¹]	self-cleavage kobs at 2500 uM GlcN6P (glucosamine-6-phosphate [7]) [s⁻¹]
A6C A52U U54A U55C	< 1e-05	< 1e-05	< 1e-05	–	–	–	–
U69C C71U	5.8e-05 ± 1.1e-05	0.000326 ± 9.3e-05	0.000676 ± 0.00011	0.000591 ± 7.2e-05	368 ± 88	0.000208 ± 5.6e-05	0.000432 ± 9.4e-05
A6G C16G	< 1e-05	< 1e-05	3.38e-05 ± 8.1e-06	–	–	< 1e-05	–
U65C C71A	–	6.26e-05 ± 2.5e-05	0.000102 ± 2.3e-05	0.000104 ± 5.5e-06	481 ± 140	–	8.23e-05 ± 2e-05
U65C C71U	–	0.000236 ± 4.3e-05	0.000659 ± 8e-05	0.000792 ± 0.00011	1460 ± 510	–	0.000617 ± 0.00011
A6G G59A A64U	< 1e-05	< 1e-05	< 1e-05	–	–	–	–
A6C G35U G38A G43U U54G C67U	< 1e-05	–	< 1e-05	–	–	–	< 1e-05
A6G A42U A64G	< 1e-05	< 1e-05	< 1e-05	–	–	–	< 1e-05
A6G C50G C58G	0.000111 ± 2.7e-05	–	–	–	–	0.000451 ± 0.0001	–
A6G C11U A33U G60U	< 1e-05	< 1e-05	< 1e-05	–	–	–	< 1e-05
A6G A15C C16U	< 1e-05	–	4.37e-05 ± 1.5e-05	–	–	–	–
C67A U69G	–	6.63e-05 ± 1.6e-05	–	4.96e-05 ± 1.7e-05	–	–	6.57e-05 ± 1.3e-05
U2C	0.000889 ± 0.00014	0.0102 ± 0.0023	0.0584 ± 0.014	–	–	–	0.00926 ± 0.003
A6C G66C C68G	< 1e-05	–	–	–	–	–	–
A6C G41C G43A A48G	< 1e-05	–	–	–	–	–	–
A6G U55G G66C C70A	0.000223 ± 8.2e-05	0.000697 ± 0.00025	0.000165 ± 5.3e-05	–	–	–	0.000623 ± 0.0002
A6U A15G U31G G41A	< 1e-05	–	< 1e-05	–	–	–	–
A6G G32A U49G U55A	< 1e-05	–	< 1e-05	–	–	–	–
A6C G51A	< 1e-05	–	< 1e-05	–	–	< 1e-05	< 1e-05
C67A C70U	9.1e-05 ± 9.4e-06	0.000461 ± 6.6e-05	0.00206 ± 0.00033	0.00153 ± 0.00062	–	0.000211 ± 3.6e-05	0.00129 ± 0.00019
